# Target: T1, CCR4-IL2 bispecific immunotoxin
# T1 construct: also called CCR4-IL2 IT; CCR4-IL2 immunotoxin
# Experiment: flow cytometry, MFI against concentration of biotinylated immunotoxin on CD25+CCR4+ Hut102/6TG cells, nonlinear least squares fit
binder,measurement,value
"human CD25 and human CCR4 together on human CD25+CCR4+ T-cell lymphoma cell line Hut 102/6TG (other, whole, on cells; Not a complex: two separate receptors on the same cell; also called human CD25+CCR4+ Hut102/6TG; CD25+CCR4+ CTCL Hut102/6TG) chain 1: ELCDDDPPEIPHATFKAMAYKEGTMLNCECKRGFRRIKSGSLYMLCTGNSSHSSWDNQCQCTSSATRNTTKQVTPQPEEQKERKTTEMQSPMQPVDQASLPGHCREPPPWENEATERIYHFVVGQMVYYQCVQGYRALHRGPAESVCKMTHGKTRWTQPQLICTGEMETSQFPGEEKPQASPEGRPESETSCLVTTTDFQIQTEMAATMETSIFTTEYQVAVAGCVFLLISVLLLSGLTWQRRQRKSRRTI chain 2: MNPTDIADTTLDESIYSNYYLYESIPKPCTKEGIKAFGELFLPPLYSLVFVFGLLGNSVVVLVLFKYKRLRSMTDVYLLNLAISDLLFVFSLPFWGYYAADQWVFGLGLCKMISWMYLVGFYSGIFFVMLMSIDRYLAIVHAVFSLRARTLTYGVITSLATWSVAVFASLPGFLFSTCYTERNHTYCKTKYSLNSTTWKVLSSLEINILGLVIPLGIMLFCYSMIIRTLQHCKNEKKNKAVKMIFAVVVLFLGFWTPYNIVLFLETLVELEVLQDCTFERYLDYAIQATETLAFVHCCLNPIIYFFLGEKFRKYILQLFKTCRGLFVLCQYCGLLQIYSADTPSSSYTQSTMDHDLHDAL",Kd,19.7 nM
